The source of these data is the RNAGym collection of RNA variant scans (doi:10.1073/pnas.2313332121).

The chains are these.
B1: TPR 5TU (parent)
chain: GGAUCUUCUCGAUCUAACAAAAAAGACAAAUCUGCCACAAAGCUUGAGAGCAUCUUCGGAUGCAGAGGCGGCAGCCUUCGGUGGCGCGAUAGCGCCAACGUUCUCAACUAUGACACGCAAAACGCGUGCUCCGUUGAAUGGAGUUUAUCAUG

Variants at the floor of the assay were thinned out. Where only a bound is given, the exact number is not on record here.

In this data set the parent is B1. Nature of the data set: polymerase ribozyme fitness, log enrichment relative to wild type (log ratio); higher = more active; in vitro selection for triplet polymerase activity. An outline of the steps:
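Each subunit of a heterodimeric triplet polymerase ribozyme was mutagenized into a library by PCR, transcribed, and subjected to one round of in vitro selection, run in triplicate. Libraries were annealed with a biotinylated primer, the partner subunit and triplets, incubated frozen at −7 °C, and extended constructs were gel-excised, captured on streptavidin beads and recovered by RT-PCR. Input and output libraries were sequenced on Illumina, keeping genotypes with ≥10 input reads and ≥1 read per output. Fitness is log base 2 of genotype enrichment divided by wild-type enrichment, from inverse-variance-weighted replicate averages.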
With A12U C85A, the “polymerase ribozyme fitness (log ratio)” value is -1.85.
The figure for G48A G83U A98G G140C is at most -4.2; for A17U G92A it is -2.84; for U53A A66C A91U U104G G124A G141A it is at most -4.2.
The figure for U9C A22C C96G C99G G128U is at most -4.2.
To A19U C85G A121G belongs -1.62; to C87G G92C G126A, 0.48.
Turning to C18U U56A C85A G124A U135G G136A, the “polymerase ribozyme fitness (log ratio)” value was at most -4.2.
To A16C A26U G42U A47C U55A U90G A98G belongs at most -4.2.
For the variant C14G A20U G50A U56A G65U C93A C131A, the “polymerase ribozyme fitness (log ratio)” value was at most -4.2.
Take A37C: the “polymerase ribozyme fitness (log ratio)” value came out at 0.064.
The figure for C14G A19U G59C G81U C95U G141A is -3.74; for U104G G126C it is 0.0565; for A137G it is -1.15.
Turning to G71U G84U U101C G117U C123U, the “polymerase ribozyme fitness (log ratio)” value is -4.15.
To U13G A20C U55G U90G C95G C105A C116G G124A belongs at most -4.2.
The figure for A37G C93A U145G is -3.99.
The figure for A19G G50A C69U G84U A98U A122G is at most -4.2; for G34U G58U G74U G81A U102A U104C it is at most -4.2.
For A12G A37U U55G A113C, the “polymerase ribozyme fitness (log ratio)” value was at most -4.2.
Turning to U9G U53A, the “polymerase ribozyme fitness (log ratio)” value was -3.81.
To A39G U45A A49U U61A C75U G83U C129G U144G belongs at most -4.2; to C85U C114G G128A, at most -4.2.
The figure for G70U U139G is -2.93; for G94C A97G A121U A122U it is -0.691.
To C32U A49C U55A G81A C85U U90A A106U A121U C125A belongs at most -4.2; to C8A A22U C79G G81U C95U A107U C108U, at most -4.2.
With C87U A137C, the “polymerase ribozyme fitness (log ratio)” value was -3.99.
The figure for U56A C96U is -0.499; for A106U U135A it is -2.14.
The figure for A17G A21G A29G G81A C93G G112U C118A U135A is at most -4.2; for U4A U15G C87U it is 0.183; for G59A C85U U134A it is -3.92.
The figure for U7A A29U C35U A66C U82G A113U is -3.86.
Take C79A A91U A107C G124C U144C: the “polymerase ribozyme fitness (log ratio)” value was at most -4.2.
The figure for A47U C85A U139G is -1.24; for G48C U55A C103G it is -0.533.
The figure for A21U A26G U33A A142C G143U U146G C149G is at most -4.2; for C10G C54U U56A G62U G94A C149U it is at most -4.2; for A49G C96U it is -0.233.
The figure for G74U A97U is -4.18.
Consider A41C A113U C114A, for which the “polymerase ribozyme fitness (log ratio)” value was at most -4.2.
The figure for G50C A52G C57U C93A is at most -4.2; for A16U G124U it is -2.37; for C87A G133C U145C U146C it is at most -4.2.
The figure for U61A A89U is -0.941; for U7C C38U C95A A119U it is -2.61; for C14G U33C G84U G94A it is -4.16.
The figure for U61A C105U is -1.02; for C35U C149U it is -1.57; for A41C C57A C87U C114G it is -3.91.
As to G25U U61G C99G A106G A107U A150G, the “polymerase ribozyme fitness (log ratio)” value is at most -4.2.
To A12G C85A C118A G136U belongs -3.83.
The figure for C8G G143C is -4.08.
The figure for U33C C87G G152A is at most -4.2.
As to A12U A16C A28G C38U A41U G86A A150G, the “polymerase ribozyme fitness (log ratio)” value is at most -4.2.
To C27U G58C U139C belongs at most -4.2.
To C76A A122U belongs 0.592; to G50U C87U C96A, -1.48; to G83C U144C, -1.58.
Regarding A41C C85U A122U G126C, the “polymerase ribozyme fitness (log ratio)” value was -0.655.
Take C38A C85A U144C: the “polymerase ribozyme fitness (log ratio)” value was -0.839.
To C54A U148C belongs -3.69; to U56A G80U C99A A122C, -1.16.
To G86C G136A belongs -1.38.
To A16U U31A G83A C105U belongs -1.17; to C96G C105U C116G A119U C132U, -1.57.
In the case of C5G U53G C57A G80C A91U U144C, the “polymerase ribozyme fitness (log ratio)” value was at most -4.2.
For A23U G50C U139G, the “polymerase ribozyme fitness (log ratio)” value is at most -4.2.
Take G25C C36U C57A: the “polymerase ribozyme fitness (log ratio)” value is -3.99.
The figure for A47C G50C U53A A89G A106U A120C G136A is at most -4.2; for A20C G92A U101G G124A C129U it is -3.24; for A22U G92A C95A C105U it is -3.63.
To C43U C103G belongs at most -4.2; to A24G A52C C85U C96U C105U A120U G136A, at most -4.2; to C5G G94C U101G, -2.68.
Regarding G50A C95G, the “polymerase ribozyme fitness (log ratio)” value is -3.01.
To U61A C72U belongs -3.66; to A24G A29G G46U, at most -4.2; to C32U A40U U56C C85U U90A C114U, -4.06.
The figure for U7A A20G C35U A47G G83A C96A is at most -4.2; for A21G A22U A24G A39U C87A C96A U148C it is at most -4.2; for U33G A39C C54U it is -3.84.
In the case of C27U C43A C75U C96U C105A, the “polymerase ribozyme fitness (log ratio)” value was at most -4.2.
